Experimental data: US20070032439, “Tarp promoter and uses thereof” (published 2007)

B1: mutated ARE[-186] oligo (dsDNA)
DNA 1: GCAAGGTGTGGTCAACTATTAAA
DNA 2: TTTAATAGTTGACCACACCTTGC
B2: wild-type ARE[-186] TARP promoter oligo (dsDNA)
DNA 1: GCAAGGTGAGGTCAGTTCTTAAA
DNA 2: TTTAAGAACTGACCTCACCTTGC

How the values were obtained:
[1] = molecular target: T1, Androgen receptor (AR), full-length (Homo sapiens, UniProt P10275 P10275:1-920); experiment: EMSA; 10 nM R1881, 30 mM KCl, 2 mM MgCl2, pH 7.5, poly(dI-dC); details: tags: none stated; cDNA from pSVAR0 in pBluescript II SK+, T7/wheat germ extract (Promega); chain copies: 2; label: 32P 5' end
Description: (§1) Double-stranded oligonucleotides constituting either the wild-type ARE or a mutated version thereof at −186, relative to the TARP transcription initiation site, were 5′end labeled with […] using T4 polynucleotide kinase (Amersham Bioscience, Piscataway, N.J.). The wild-type oligonucleotide sequence was […] and includes the ARE[−186] sequence of the TARP promoter. The corresponding oligonucleotide sequence with the mutated version of the ARE[−186] was […]. Full-length human AR cDNA was subcloned from PSVAR0 (Brinkmann et al., J. Steroid Biochem., 34: 307-310, 1989) to pBluescript II SK+ (Stratagene). In vitro-translated human AR was produced by transcription-coupled translation by using T7 RNA polymerase and wheat germ extract (Promega). Translated AR was incubated with either wild-type ARE[−186] probe or mutated ARE[−186] probe in a buffer containing 20 mM HEPES (pH 7.5), 30 mM KCl, 2 mM MgCl₂, 1 mM EDTA, 1 mM dithioerythritol, 1 mM phenylmethylsulfonyl fluoride, 10 nM R1881, 15% glycerol, 1 μg poly(dI-dC)poly(dI-dC) and 1 μg BSA. Samples were resolved by electrophoresis on 5% TBE/polyacrylamide gels. The gels were dried and subjected to autoradiography.

[2] = molecular target: T1, Androgen receptor (AR), full-length; experiment: EMSA; 10 nM R1881, 30 mM KCl, 2 mM MgCl2, pH 7.5, poly(dI-dC); abolished by 100-fold unlabeled wild-type competitor; details: tags: none stated; cDNA from pSVAR0 in pBluescript II SK+, T7/wheat germ extract (Promega); chain copies: 2; label: 32P 5' end
Description: as §1

T1 sequence (P10275 whole entry, one chain of several): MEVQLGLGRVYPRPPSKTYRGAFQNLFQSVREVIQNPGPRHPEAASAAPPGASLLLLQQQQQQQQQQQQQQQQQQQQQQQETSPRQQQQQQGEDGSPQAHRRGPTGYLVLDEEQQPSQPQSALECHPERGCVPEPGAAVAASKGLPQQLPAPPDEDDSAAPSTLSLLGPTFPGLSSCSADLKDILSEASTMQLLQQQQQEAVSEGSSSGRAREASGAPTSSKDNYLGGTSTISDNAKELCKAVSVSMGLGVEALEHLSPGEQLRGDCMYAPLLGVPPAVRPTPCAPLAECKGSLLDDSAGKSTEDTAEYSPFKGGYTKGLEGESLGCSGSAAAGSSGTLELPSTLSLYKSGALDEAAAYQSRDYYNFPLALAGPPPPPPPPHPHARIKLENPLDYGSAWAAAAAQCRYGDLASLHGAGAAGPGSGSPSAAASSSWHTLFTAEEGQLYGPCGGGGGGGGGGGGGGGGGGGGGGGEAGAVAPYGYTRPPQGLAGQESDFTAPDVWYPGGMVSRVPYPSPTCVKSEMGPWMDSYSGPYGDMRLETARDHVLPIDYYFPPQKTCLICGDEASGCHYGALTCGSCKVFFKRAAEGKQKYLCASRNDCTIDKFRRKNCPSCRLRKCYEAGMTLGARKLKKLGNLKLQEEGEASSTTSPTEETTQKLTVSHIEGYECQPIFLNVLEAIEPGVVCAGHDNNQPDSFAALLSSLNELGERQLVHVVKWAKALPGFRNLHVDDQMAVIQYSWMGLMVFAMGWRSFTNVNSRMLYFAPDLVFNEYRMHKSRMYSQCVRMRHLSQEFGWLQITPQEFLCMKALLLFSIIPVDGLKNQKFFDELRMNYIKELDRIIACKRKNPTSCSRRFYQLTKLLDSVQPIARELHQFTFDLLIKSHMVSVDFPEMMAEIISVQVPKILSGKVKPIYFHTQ

Binder | binding result [1] | binding result [2]
B1 | no binding | –
B2 | – | binds
